We go through 5 molecules from US20210139548A1 (published 2021).

*1 amine or outer side, *2 acyl side, *3 side chain or, on linkers, in order; H or OH if unused. Side-chain parts run from the residue outwards. The star is where a group is joined. C18 diacid = O=C(O)CCCCCCCCCCCCCCCCC(=O)*; γGlu = O=C(O)[C@H](CCC(=O)[*:2])N[*:1]; Isovaleryl = CC(C)CC(=O)*; AEEA = NCCOCCOCC(=O)O

Sequences and labels used below:
T1: human neuropeptide Y2 receptor (human, UniProt P49146 1-381)
T1 construct: whole, on cells; also called hNPY2 receptor; hNPY2-R
T1 sequence (looked up): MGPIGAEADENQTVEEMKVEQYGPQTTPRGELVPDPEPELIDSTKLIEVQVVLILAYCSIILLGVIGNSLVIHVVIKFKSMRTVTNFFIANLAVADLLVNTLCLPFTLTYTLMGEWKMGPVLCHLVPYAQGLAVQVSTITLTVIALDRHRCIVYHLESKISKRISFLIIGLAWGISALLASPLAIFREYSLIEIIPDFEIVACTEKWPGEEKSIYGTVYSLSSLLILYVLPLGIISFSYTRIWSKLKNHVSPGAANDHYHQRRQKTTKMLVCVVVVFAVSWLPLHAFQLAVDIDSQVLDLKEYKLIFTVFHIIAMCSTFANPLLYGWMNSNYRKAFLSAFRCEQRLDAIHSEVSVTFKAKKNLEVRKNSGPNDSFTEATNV

B1: Compound 141 (peptide)
peptide: Isovaleryl-APEK([AEEA-AEEA-γGlu-C18 diacid])PEEAASPEELQRYYVSARHYYNWLTRQRY-NH2
SMILES: CC(C)CC(=O)N[C@@H](C)C(=O)N1CCC[C@H]1C(=O)N[C@@H](CCC(=O)O)C(=O)N[C@@H](CCCCNC(=O)COCCOCCNC(=O)COCCOCCNC(=O)CC[C@H](NC(=O)CCCCCCCCCCCCCCCCC(=O)O)C(=O)O)C(=O)N1CCC[C@H]1C(=O)N[C@@H](CCC(=O)O)C(=O)N[C@@H](CCC(=O)O)C(=O)N[C@@H](C)C(=O)N[C@@H](C)C(=O)N[C@@H](CO)C(=O)N1CCC[C@H]1C(=O)N[C@@H](CCC(=O)O)C(=O)N[C@@H](CCC(=O)O)C(=O)N[C@@H](CC(C)C)C(=O)N[C@@H](CCC(N)=O)C(=O)N[C@@H](CCCNC(=N)N)C(=O)N[C@@H](Cc1ccc(O)cc1)C(=O)N[C@@H](Cc1ccc(O)cc1)C(=O)N[C@H](C(=O)N[C@@H](CO)C(=O)N[C@@H](C)C(=O)N[C@@H](CCCNC(=N)N)C(=O)N[C@@H](Cc1c[nH]cn1)C(=O)N[C@@H](Cc1ccc(O)cc1)C(=O)N[C@@H](Cc1ccc(O)cc1)C(=O)N[C@@H](CC(N)=O)C(=O)N[C@@H](Cc1c[nH]c2ccccc12)C(=O)N[C@@H](CC(C)C)C(=O)N[C@H](C(=O)N[C@@H](CCCNC(=N)N)C(=O)N[C@@H](CCC(N)=O)C(=O)N[C@@H](CCCNC(=N)N)C(=O)N[C@@H](Cc1ccc(O)cc1)C(N)=O)[C@@H](C)O)C(C)C
B2: Compound 144 (peptide)
peptide: Isovaleryl-APEK([AEEA-AEEA-γGlu-C18 diacid])AEEDASPEELQQYYVSLRHYYNWLTRQRY-NH2
SMILES: CC(C)CC(=O)N[C@@H](C)C(=O)N1CCC[C@H]1C(=O)N[C@@H](CCC(=O)O)C(=O)N[C@@H](CCCCNC(=O)COCCOCCNC(=O)COCCOCCNC(=O)CC[C@H](NC(=O)CCCCCCCCCCCCCCCCC(=O)O)C(=O)O)C(=O)N[C@@H](C)C(=O)N[C@@H](CCC(=O)O)C(=O)N[C@@H](CCC(=O)O)C(=O)N[C@@H](CC(=O)O)C(=O)N[C@@H](C)C(=O)N[C@@H](CO)C(=O)N1CCC[C@H]1C(=O)N[C@@H](CCC(=O)O)C(=O)N[C@@H](CCC(=O)O)C(=O)N[C@@H](CC(C)C)C(=O)N[C@@H](CCC(N)=O)C(=O)N[C@@H](CCC(N)=O)C(=O)N[C@@H](Cc1ccc(O)cc1)C(=O)N[C@@H](Cc1ccc(O)cc1)C(=O)N[C@H](C(=O)N[C@@H](CO)C(=O)N[C@@H](CC(C)C)C(=O)N[C@@H](CCCNC(=N)N)C(=O)N[C@@H](Cc1c[nH]cn1)C(=O)N[C@@H](Cc1ccc(O)cc1)C(=O)N[C@@H](Cc1ccc(O)cc1)C(=O)N[C@@H](CC(N)=O)C(=O)N[C@@H](Cc1c[nH]c2ccccc12)C(=O)N[C@@H](CC(C)C)C(=O)N[C@H](C(=O)N[C@@H](CCCNC(=N)N)C(=O)N[C@@H](CCC(N)=O)C(=O)N[C@@H](CCCNC(=N)N)C(=O)N[C@@H](Cc1ccc(O)cc1)C(N)=O)[C@@H](C)O)C(C)C
B3: Compound 145 (peptide)
peptide: Isovaleryl-APEK([AEEA-AEEA-γGlu-C18 diacid])PEEDSSPEEIQRYYVSLRHYYNWLTRQRY-NH2
SMILES: CC[C@H](C)[C@H](NC(=O)[C@H](CCC(=O)O)NC(=O)[C@H](CCC(=O)O)NC(=O)[C@@H]1CCCN1C(=O)[C@H](CO)NC(=O)[C@H](CO)NC(=O)[C@H](CC(=O)O)NC(=O)[C@H](CCC(=O)O)NC(=O)[C@H](CCC(=O)O)NC(=O)[C@@H]1CCCN1C(=O)[C@H](CCCCNC(=O)COCCOCCNC(=O)COCCOCCNC(=O)CC[C@H](NC(=O)CCCCCCCCCCCCCCCCC(=O)O)C(=O)O)NC(=O)[C@H](CCC(=O)O)NC(=O)[C@@H]1CCCN1C(=O)[C@H](C)NC(=O)CC(C)C)C(=O)N[C@@H](CCC(N)=O)C(=O)N[C@@H](CCCNC(=N)N)C(=O)N[C@@H](Cc1ccc(O)cc1)C(=O)N[C@@H](Cc1ccc(O)cc1)C(=O)N[C@H](C(=O)N[C@@H](CO)C(=O)N[C@@H](CC(C)C)C(=O)N[C@@H](CCCNC(=N)N)C(=O)N[C@@H](Cc1c[nH]cn1)C(=O)N[C@@H](Cc1ccc(O)cc1)C(=O)N[C@@H](Cc1ccc(O)cc1)C(=O)N[C@@H](CC(N)=O)C(=O)N[C@@H](Cc1c[nH]c2ccccc12)C(=O)N[C@@H](CC(C)C)C(=O)N[C@H](C(=O)N[C@@H](CCCNC(=N)N)C(=O)N[C@@H](CCC(N)=O)C(=O)N[C@@H](CCCNC(=N)N)C(=O)N[C@@H](Cc1ccc(O)cc1)C(N)=O)[C@@H](C)O)C(C)C
B4: Compound 146 (peptide)
peptide: Isovaleryl-APEK([AEEA-AEEA-γGlu-C18 diacid])PEEEASPEELQRYYVSTRHYYNWLTRQRY-NH2
SMILES: CC(C)CC(=O)N[C@@H](C)C(=O)N1CCC[C@H]1C(=O)N[C@@H](CCC(=O)O)C(=O)N[C@@H](CCCCNC(=O)COCCOCCNC(=O)COCCOCCNC(=O)CC[C@H](NC(=O)CCCCCCCCCCCCCCCCC(=O)O)C(=O)O)C(=O)N1CCC[C@H]1C(=O)N[C@@H](CCC(=O)O)C(=O)N[C@@H](CCC(=O)O)C(=O)N[C@@H](CCC(=O)O)C(=O)N[C@@H](C)C(=O)N[C@@H](CO)C(=O)N1CCC[C@H]1C(=O)N[C@@H](CCC(=O)O)C(=O)N[C@@H](CCC(=O)O)C(=O)N[C@@H](CC(C)C)C(=O)N[C@@H](CCC(N)=O)C(=O)N[C@@H](CCCNC(=N)N)C(=O)N[C@@H](Cc1ccc(O)cc1)C(=O)N[C@@H](Cc1ccc(O)cc1)C(=O)N[C@H](C(=O)N[C@@H](CO)C(=O)N[C@H](C(=O)N[C@@H](CCCNC(=N)N)C(=O)N[C@@H](Cc1c[nH]cn1)C(=O)N[C@@H](Cc1ccc(O)cc1)C(=O)N[C@@H](Cc1ccc(O)cc1)C(=O)N[C@@H](CC(N)=O)C(=O)N[C@@H](Cc1c[nH]c2ccccc12)C(=O)N[C@@H](CC(C)C)C(=O)N[C@H](C(=O)N[C@@H](CCCNC(=N)N)C(=O)N[C@@H](CCC(N)=O)C(=O)N[C@@H](CCCNC(=N)N)C(=O)N[C@@H](Cc1ccc(O)cc1)C(N)=O)[C@@H](C)O)[C@@H](C)O)C(C)C
B5: Compound 142 (peptide)
peptide: Isovaleryl-APEK([AEEA-AEEA-γGlu-C18 diacid])PPEEASPEELQRYYVSLRHYYNWLTRQRY-NH2
SMILES: CC(C)CC(=O)N[C@@H](C)C(=O)N1CCC[C@H]1C(=O)N[C@@H](CCC(=O)O)C(=O)N[C@@H](CCCCNC(=O)COCCOCCNC(=O)COCCOCCNC(=O)CC[C@H](NC(=O)CCCCCCCCCCCCCCCCC(=O)O)C(=O)O)C(=O)N1CCC[C@H]1C(=O)N1CCC[C@H]1C(=O)N[C@@H](CCC(=O)O)C(=O)N[C@@H](CCC(=O)O)C(=O)N[C@@H](C)C(=O)N[C@@H](CO)C(=O)N1CCC[C@H]1C(=O)N[C@@H](CCC(=O)O)C(=O)N[C@@H](CCC(=O)O)C(=O)N[C@@H](CC(C)C)C(=O)N[C@@H](CCC(N)=O)C(=O)N[C@@H](CCCNC(=N)N)C(=O)N[C@@H](Cc1ccc(O)cc1)C(=O)N[C@@H](Cc1ccc(O)cc1)C(=O)N[C@H](C(=O)N[C@@H](CO)C(=O)N[C@@H](CC(C)C)C(=O)N[C@@H](CCCNC(=N)N)C(=O)N[C@@H](Cc1c[nH]cn1)C(=O)N[C@@H](Cc1ccc(O)cc1)C(=O)N[C@@H](Cc1ccc(O)cc1)C(=O)N[C@@H](CC(N)=O)C(=O)N[C@@H](Cc1c[nH]c2ccccc12)C(=O)N[C@@H](CC(C)C)C(=O)N[C@H](C(=O)N[C@@H](CCCNC(=N)N)C(=O)N[C@@H](CCC(N)=O)C(=O)N[C@@H](CCCNC(=N)N)C(=O)N[C@@H](Cc1ccc(O)cc1)C(N)=O)[C@@H](C)O)C(C)C

This assay addresses T1, human neuropeptide Y2 receptor. Put plainly: radioligand competition (125I-PYY(1-36)), hNPY2R membranes. The method in brief:
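Commercial human Y2 receptor membranes (0.5 μg protein/well) were incubated with peptide for 2 h at room temperature in 50 mM HEPES, 5 mM MgCl₂, 1 mM CaCl₂, pH 7.4, with 0.2% ovalbumin. Bound radioligand was separated on PEI-soaked GF/C filters and counted by scintillation, and IC₅₀ came from nonlinear sigmoidal regression.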
In general terms: In a radioligand displacement assay an active substance lowers the binding of a labelled ligand.
In the case of B1, the Ki (commonly the equilibrium dissociation constant of an inhibitor or competing ligand from its target) turned out to be 3.12 nM. This lies in the single-digit nanomolar range. As for B2, the figure is 8.92 nM. As for B3, the figure is 1.55 nM; as for B4, 5.05 nM; as for B5, 1.17 nM.
